In US20260069689A1:

Biological target: T1, human CD20 on Jurkat cells (human) (UniProt P11836)
T1 sequence: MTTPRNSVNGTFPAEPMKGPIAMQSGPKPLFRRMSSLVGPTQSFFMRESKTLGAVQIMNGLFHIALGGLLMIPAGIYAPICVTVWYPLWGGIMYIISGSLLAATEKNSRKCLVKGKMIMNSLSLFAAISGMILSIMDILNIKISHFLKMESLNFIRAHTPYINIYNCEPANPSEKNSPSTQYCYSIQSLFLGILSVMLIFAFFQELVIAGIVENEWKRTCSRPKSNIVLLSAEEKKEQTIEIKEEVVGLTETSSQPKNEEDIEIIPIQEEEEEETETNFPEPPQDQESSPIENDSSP
Assay: cell-based or functional assay

casirivimab + imdevimab
Max ADCP (%), MDM donor #1, Jurkat/hCD20 cells: 15.5% | Max ADCP (%), MDM donor #2, Jurkat/hCD20 cells: 15.1% | Max cytotoxicity (%), ADCC, NK donor #1, Jurkat/hCD20 cells: 0.8% | Max cytotoxicity (%), ADCC, NK donor #2, Jurkat/hCD20 cells: 4.8% | Max cytotoxicity (%), ADCC, NK donor #3, Jurkat/hCD20 cells: 0%
